Assay results reported in publication PMC9403797, “Back From the Dead: The Atypical Kinase Activity of a Pseudokinase Regulator of Cation Fluxes During Inducible Immunity” (Frontiers in Plant Science, 2022).

Molecular target: T1, MPK19 (Arabidopsis, UniProt Q9LUC3 1-598)
T1 construct: MPK19, MAPK family kinase, Arabidopsis; fusion protein spotted on the functional protein microarray; source: printed on protein microarrays (AtPMA-5000 and AtPMA-10000)
T1 sequence (looked up): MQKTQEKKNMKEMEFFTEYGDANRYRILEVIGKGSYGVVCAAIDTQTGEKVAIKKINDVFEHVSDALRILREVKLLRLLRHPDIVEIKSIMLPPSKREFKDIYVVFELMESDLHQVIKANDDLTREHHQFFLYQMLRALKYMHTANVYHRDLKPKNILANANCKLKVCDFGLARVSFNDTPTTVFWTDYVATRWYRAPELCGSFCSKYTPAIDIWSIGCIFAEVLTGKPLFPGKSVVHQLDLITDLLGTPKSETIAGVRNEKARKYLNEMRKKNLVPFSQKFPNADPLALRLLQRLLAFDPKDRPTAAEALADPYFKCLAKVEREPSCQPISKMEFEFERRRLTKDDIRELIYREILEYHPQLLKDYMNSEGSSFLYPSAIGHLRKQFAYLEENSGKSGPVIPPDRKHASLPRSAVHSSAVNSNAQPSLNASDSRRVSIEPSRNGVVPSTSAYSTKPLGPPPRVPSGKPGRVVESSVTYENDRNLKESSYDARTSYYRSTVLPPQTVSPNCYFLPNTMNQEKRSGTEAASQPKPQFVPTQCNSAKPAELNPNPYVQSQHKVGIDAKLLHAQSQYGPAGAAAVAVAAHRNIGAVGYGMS
Assay: peptide or protein array; functional protein microarrays (AtPMA-5000 and AtPMA-10000, about 15,000 Arabidopsis proteins) probed with 150 ul purified ILK1-V5 in solution for 1.5 h with 1% BSA, 5 mM MgCl2 and MnCl2; detected with Cy5-conjugated anti-V5 antibody; three probe arrays against two control arrays without probe; one-sided t-test, 5% significance, FDR
Settings: both partners purified

B1: ILK1-V5 (integrin-linked kinase 1, Arabidopsis) (enzyme, UniProt F4IS56 1-479, looked up)
chain: MENITAQLKRGISRQFSTGSIRRTLSRQFTRQSSLDPRRTNMRFSFGRQSSLDPIRRSPDSSKSDDEPHMSVPENLDSTMQLLFMASKGDVRGIEELLDEGIDVNSIDLDGRTALHIAACEGHLGVVKALLSRRANIDARDRWGSTAAADAKYYGNLDVYNLLKARGAKVPKTRKTPMTVSNPREVPEYELNPLEVQVRKSDGISKGAYQVAKWNGTRVSVKILDKDSYSDPERINAFRHELTLLEKVRHPNVIQFVGAVTQNIPMMIVVEYNPKGDLSVYLQKKGRLSPSKALRFALDIARGMNYLHECKPDPIIHCDLKPKNILLDRGGQLKISGFGMIRLSKISQDKAKVANHKAHIDLSNYYIAPEVYKDEIFDLRVDAHSFGVILYEITEGVPVFHPRPPEEVARMMCLEGKRPVFKTKSRSYPPDIKELIEKCWHPEAGIRPTFSEIIIRLDKIVANCSKQGWWKDTFKFPWK
notes: ILK1, integrin-linked kinase 1, a pseudokinase of the Raf-like MAP3K family, Arabidopsis; also called purified ILK1-V5 protein; source: purified as described previously (Brauer et al., 2014, 2016); purity validated by mass spectrometry
B1: binds.
